Experimental data taken from PMC4830570, “CD36 Differently Regulates Macrophage Responses to Smooth and Rough Lipopolysaccharide” (PLoS ONE, 2016).

Experiments:
[1] = molecular target: T1, CD36 on the surface of mouse peritoneal exudate macrophages (mouse (endogenous in peritoneal exudate …, UniProt Q08857 1-472)); test: cellular ELISA; rCD14 with 1 μg/ml S-LPS on adherent PEMs, incubation on ice (0°C); bound rCD14 detected with HRP-anti-Fc; details: one partner purified
T1 construct: CD36, mouse, endogenous on the surface of peritoneal exudate macrophages; also called CD36 on PEMs; endogenous CD36; source: endogenous, on adherent thioglycollate-elicited peritoneal exudate macrophages of C57BL/6 mice
T1 sequence (Q08857 whole entry): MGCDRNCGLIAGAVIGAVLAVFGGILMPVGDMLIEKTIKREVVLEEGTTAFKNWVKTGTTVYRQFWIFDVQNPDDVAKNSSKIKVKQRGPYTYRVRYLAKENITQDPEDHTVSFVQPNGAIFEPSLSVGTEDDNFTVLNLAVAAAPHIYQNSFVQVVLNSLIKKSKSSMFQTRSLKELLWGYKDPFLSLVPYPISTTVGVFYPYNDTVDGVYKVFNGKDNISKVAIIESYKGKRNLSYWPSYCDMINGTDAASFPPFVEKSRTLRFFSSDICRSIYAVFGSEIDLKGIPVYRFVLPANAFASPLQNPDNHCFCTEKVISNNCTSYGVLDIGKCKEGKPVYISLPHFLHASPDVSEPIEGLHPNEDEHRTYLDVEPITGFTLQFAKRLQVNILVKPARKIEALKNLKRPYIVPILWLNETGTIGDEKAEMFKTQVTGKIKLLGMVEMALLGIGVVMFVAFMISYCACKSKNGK

[2] = molecular target: T1, CD36 on the surface of mouse peritoneal …; test: cellular ELISA; 5 μg/ml rCD14 with 1 μg/ml S-LPS on adherent PEMs, 50 min at 37°C in FCS-RPMI; bound rCD14 detected with HRP-anti-Fc; details: one partner purified

B1: recombinant mouse CD14 tagged with the Fc fragment of human IgG1 (Fc fusion, UniProt P10810 16-336, looked up)
chain: SPAPPEPCELDEESCSCNFSDPKPDWSSAFNCLGAADVELYGGGRSLEYLLKRVDTEADLGQFTDIIKSLSLKRLTVRAARIPSRILFGALRVLGISGLQELTLENLEVTGTAPPPLLEATGPDLNILNLRNVSWATRDAWLAELQQWLKPGLKVLSIAQAHSLNFSCEQVRVFPALSTLDLSDNPELGERGLISALCPLKFPTLQVLALRNAGMETPSGVCSALAAARVQLQGLDLSHNSLRDAAGAPSCDWPSQLNSLNLSFTGLKQVPKGLPAKLSVLDLSYNRLDRNPSPDELPQVGNLSLKGNPFLDSESHSEKFN
notes: CD14, mouse, recombinant soluble receptor from R&D Systems; also called rCD14; source: bought: R&D Systems
fold higher binding on ice than at 37°C [1]: ~2 fold | fold increase of binding with S-LPS over binding without LPS [2]: > 25 fold
